Literature values, collected in publication PMC3859915.

Molecular target: IL-15 (Mus musculus) (UniProt P48346)
UniProt P48346, sequence (P48346 49-162): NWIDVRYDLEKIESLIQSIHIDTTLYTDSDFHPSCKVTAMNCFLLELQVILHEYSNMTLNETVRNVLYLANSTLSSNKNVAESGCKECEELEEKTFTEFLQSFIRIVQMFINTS

IL-15Rα (from UniProt Q60819)
Kd: 0.014 nM
